T1: ASIC1 (Rattus norvegicus, UniProt P55926)
T1 sequence (P55926 1-526): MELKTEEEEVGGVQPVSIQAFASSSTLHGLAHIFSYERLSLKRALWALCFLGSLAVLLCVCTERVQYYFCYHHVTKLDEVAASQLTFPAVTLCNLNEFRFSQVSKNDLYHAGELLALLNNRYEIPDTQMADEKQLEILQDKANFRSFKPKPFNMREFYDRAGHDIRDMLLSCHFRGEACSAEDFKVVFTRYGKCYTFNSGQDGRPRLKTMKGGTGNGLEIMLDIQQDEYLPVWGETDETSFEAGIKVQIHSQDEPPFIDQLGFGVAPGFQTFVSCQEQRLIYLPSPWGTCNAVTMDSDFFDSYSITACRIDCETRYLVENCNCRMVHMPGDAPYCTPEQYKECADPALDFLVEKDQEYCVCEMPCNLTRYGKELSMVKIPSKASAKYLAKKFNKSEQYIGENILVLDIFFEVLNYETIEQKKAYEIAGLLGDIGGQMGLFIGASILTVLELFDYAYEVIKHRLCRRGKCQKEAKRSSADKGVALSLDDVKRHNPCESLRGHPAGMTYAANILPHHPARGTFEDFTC

T2: ASIC2a (Rattus norvegicus, UniProt Q62962)
T2 sequence (Q62962 1-512): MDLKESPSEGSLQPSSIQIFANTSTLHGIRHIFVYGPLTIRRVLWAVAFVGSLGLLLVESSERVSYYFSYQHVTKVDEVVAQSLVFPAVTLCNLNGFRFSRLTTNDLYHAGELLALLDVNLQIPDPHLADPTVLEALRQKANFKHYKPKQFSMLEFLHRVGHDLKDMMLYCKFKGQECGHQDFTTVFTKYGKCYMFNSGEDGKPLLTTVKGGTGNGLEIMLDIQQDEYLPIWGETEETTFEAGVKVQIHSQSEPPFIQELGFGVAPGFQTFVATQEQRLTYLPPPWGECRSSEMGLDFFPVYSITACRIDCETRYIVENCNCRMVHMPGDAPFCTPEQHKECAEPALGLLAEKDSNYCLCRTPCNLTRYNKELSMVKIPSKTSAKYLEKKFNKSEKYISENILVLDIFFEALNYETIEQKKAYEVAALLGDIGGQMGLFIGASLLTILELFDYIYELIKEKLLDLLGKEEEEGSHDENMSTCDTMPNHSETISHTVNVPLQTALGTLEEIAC

B1: human Acid Sensing Ion Channel 2b (hASIC2b) (protein)
chain: MSRIGGAGLPAAALTGPGRFRMAREEPAPAALAAAGQPGGGRGGERALQGPGVARRGRPSLSRAKLHGLRHMCAGRTAAGGSFQRRALWVLAFCTSFGLLLSWSSNRLLYWLSFPSHTRVHREWSRQLPFPAVTVCNNNPLRFPRLSKGDLYYAGHWLGLLLPNRTARPLVSELLRGDEPRRQWFRKLADFRLFLPPRHFEGISAAFMDRLGHQLEDMLLSCKYRGELCGPHNFSSVFTKYGKCYMFNSGEDGKPLLTTVKGGTGNGLEIMLDIQQDEYLPIWGETEETTFEAGVKVQIHSQSEPPFIQELGFGVAPGFQTFVATQEQRLTYLPPPWGECRSSEMGLDFFPVYSITACRIDCETRYIVENCNCRMVHMPGDAPFCTPEQHKECAEPALGLLAEKDSNYCLCRTPCNLTRYNKELSMVKIPSKTSAKYLEKKFNKSEKYISENILVLDIFFEALNYETIEQKKAYEVAALLGDIGGQMGLFIGASILTILELFDYIYELIKEKLLDLLGKEEDEGSHDENVSTCDTMPNHSETISHTVNVPLQTTLGTLEEIAC

What was measured:
ASIC1 = target: T1, ASIC1; details: cited from earlier work
ASIC2a = target: T2, ASIC2a; details: cited from earlier work
CHO-K1 cells = experiment: whole-cell patch clamp recording of acid-induced currents in transfected CHO-K1 cells; format: cell-based, Chinese Hamster
Procedure: The mammalian expression vectors for hASIC2b and hASIC2a were constructed using appropriate expression vectors such as pcDNA3.1 (Clonetech) according to conventional molecular biological methods. Chinese Hamster Ovary (CHO)-K1 cells were seeded on a 35 mm dish in diameter at a density of 20,000 cells, and then transfected with various combinations of ASIC expression vectors with FuGENE6 transfection reagent (Roche) according to the manufacturer's instructions as follows: the hAISC2b expression vector alone (1 μg) for homomeric hASIC2b expression, hASIC2a and green fluorescent protein (GFP) expression vectors (1:2 molar ratio in a total of 1 μg) for hASIC2a expression, and hASIC2b/hASIC2a (1:2 molar ratio in a total of 1 μg) for heteromeric expression. Cells were used for electrophysiological measurements 2 days after the transfection. Successfully transfected cells were recognized by GFP emission signal. Ion currents were recorded using whole-cell patch clamp technique. Recording was made with an Axopatch 200B amplifier (Axon Instruments). Currents were filtered at 5 kHz and digitized by using Digidata 1321A interface. Data were interpolated using Origin6.0 (version 6.0, Microcal). Pipettes were pulled from borosilicate glass and had pipette resistances 1-4MΩ when filled with the intercellular solution. All recordings were made at room temperature (23±2° C.). […]

[1] = target: human Acid Sensing Ion Channel 2a (hASIC2a) (human) (UniProt Q16515); experiment: cell-based or functional assay

Row | Molecule | block of ASIC1 (ASIC1) | sensitivity of cation transport by ASIC1a (ASIC1) | sensitivity of cation transport by ASIC2a (ASIC2a) | acid-induced inward currents (CHO-K1 cells; 5 sec application of low pH solution, pH 2.0-4.0, FIG. 5) | effect on acid-induced ion currents of hASIC2a (CHO-K1 cells; co-expression with hASIC2a) | pH50 value for activation (hASIC2a/hASIC2b co-expressing CHO-K1 cells) [1] [pH] | peak current density at pH2.0 (hASIC2a/hASIC2b CHO-K1 transformants) [1] [pA/pF] | peak current density at pH3.0 (hASIC2a/hASIC2b CHO-K1 transformants) [1] [pA/pF] | peak current density at pH4.0 (hASIC2a/hASIC2b CHO-K1 transformants) [1] [pA/pF]
1 | CCN(c1nc(N)c(C(=O)NC(=N)N)nc1Cl)C(C)C [ethylisopropylamiloride] | blocked |  |  |  |  |  |  |  | 
2 | N=C(N)NC(=O)c1nc(Cl)c(N)nc1N [amiloride] | blocked | sensitive | sensitive |  |  |  |  |  | 
3 | B1 |  |  |  | inactive | inhibitory effect | 3.43 | 113 | 88.9 | 21

Source: patent US20040146882A1, “Human acid sensing ion channel 2b (hASIC2b), process for producing the same, and its use” (priority 2002, published 2004)
